What was measured:
Experiment in all cases: Kinase Profiling Assay
Format in all cases: biochemical
GRK7(h) = biological target: T1, GRK7(h) (Homo sapiens, UniProt Q8WTQ7); conditions: 100 μM
T1 sequence (Q8WTQ7 1-553): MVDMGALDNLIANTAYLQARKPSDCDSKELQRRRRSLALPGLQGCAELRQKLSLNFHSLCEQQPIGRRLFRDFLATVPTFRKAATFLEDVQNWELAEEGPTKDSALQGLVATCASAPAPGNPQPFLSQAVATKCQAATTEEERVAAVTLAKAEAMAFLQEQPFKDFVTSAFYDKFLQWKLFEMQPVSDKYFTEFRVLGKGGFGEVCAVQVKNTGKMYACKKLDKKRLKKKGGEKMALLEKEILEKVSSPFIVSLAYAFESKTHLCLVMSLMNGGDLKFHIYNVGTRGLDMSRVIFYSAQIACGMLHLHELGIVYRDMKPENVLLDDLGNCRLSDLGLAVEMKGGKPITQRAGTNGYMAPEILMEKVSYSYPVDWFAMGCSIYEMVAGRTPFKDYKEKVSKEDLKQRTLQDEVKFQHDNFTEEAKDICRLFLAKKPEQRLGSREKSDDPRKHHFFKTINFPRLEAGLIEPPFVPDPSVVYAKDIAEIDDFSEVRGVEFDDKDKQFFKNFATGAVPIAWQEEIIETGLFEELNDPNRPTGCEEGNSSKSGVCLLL

CDK7/cyclinH/MAT1(h) = CDK7/cyclinH/MAT1(h) (Homo sapiens, UniProt P50613); conditions: 100 μM
MST1(h) = biological target: T2, MST1(h) (Homo sapiens, UniProt Q13043); conditions: 100 μM
T2 sequence (Q13043 1-487): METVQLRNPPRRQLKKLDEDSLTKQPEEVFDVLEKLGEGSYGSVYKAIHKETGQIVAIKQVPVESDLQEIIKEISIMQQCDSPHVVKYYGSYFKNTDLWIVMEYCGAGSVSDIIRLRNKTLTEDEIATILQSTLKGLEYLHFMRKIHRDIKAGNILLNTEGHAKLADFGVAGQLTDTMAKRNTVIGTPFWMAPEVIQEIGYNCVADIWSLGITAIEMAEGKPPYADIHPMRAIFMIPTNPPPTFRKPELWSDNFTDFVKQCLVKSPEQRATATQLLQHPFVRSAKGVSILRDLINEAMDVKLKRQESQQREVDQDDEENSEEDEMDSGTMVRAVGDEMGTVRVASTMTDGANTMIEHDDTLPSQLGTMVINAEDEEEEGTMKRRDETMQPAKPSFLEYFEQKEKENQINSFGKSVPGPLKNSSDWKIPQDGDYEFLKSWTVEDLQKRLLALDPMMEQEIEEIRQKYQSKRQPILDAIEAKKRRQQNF

IRAK1(h) = IRAK1(h) (Homo sapiens, UniProt P51617); conditions: 100 μM
PKCβI(h) = PKCβI(h) (Homo sapiens, UniProt P05771); conditions: 100 μM
CaMKIIβ(h) = CaMKIIβ(h) (Homo sapiens, UniProt Q13554); conditions: 100 μM
NLK(h) = biological target: T3, NLK(h) (Homo sapiens, UniProt Q9UBE8)
T3 sequence (Q9UBE8 1-527): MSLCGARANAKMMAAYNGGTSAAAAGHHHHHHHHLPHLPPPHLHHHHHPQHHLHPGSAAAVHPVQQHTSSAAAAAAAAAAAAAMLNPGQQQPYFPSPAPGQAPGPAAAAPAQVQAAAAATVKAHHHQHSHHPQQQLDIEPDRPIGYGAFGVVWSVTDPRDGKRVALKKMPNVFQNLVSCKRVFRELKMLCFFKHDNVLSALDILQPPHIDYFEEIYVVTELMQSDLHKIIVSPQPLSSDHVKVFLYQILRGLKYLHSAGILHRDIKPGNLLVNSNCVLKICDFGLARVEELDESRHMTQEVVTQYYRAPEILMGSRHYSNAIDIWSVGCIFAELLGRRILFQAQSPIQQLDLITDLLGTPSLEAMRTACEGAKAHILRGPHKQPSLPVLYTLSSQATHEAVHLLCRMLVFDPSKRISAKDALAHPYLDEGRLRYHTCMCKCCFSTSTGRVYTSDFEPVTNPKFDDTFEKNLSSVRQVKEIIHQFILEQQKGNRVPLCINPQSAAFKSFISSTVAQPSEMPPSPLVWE

PKCγ(h) = PKCγ(h) (Homo sapiens, UniProt P05129); conditions: 100 μM
Ret(V804L)(h) = Ret(V804L)(h) (Homo sapiens, UniProt P07949, V804L); conditions: 100 μM
Rse(h) = biological target: T4, Rse(h) (Homo sapiens, UniProt Q06418); conditions: 100 μM
T4 sequence (Q06418 41-890): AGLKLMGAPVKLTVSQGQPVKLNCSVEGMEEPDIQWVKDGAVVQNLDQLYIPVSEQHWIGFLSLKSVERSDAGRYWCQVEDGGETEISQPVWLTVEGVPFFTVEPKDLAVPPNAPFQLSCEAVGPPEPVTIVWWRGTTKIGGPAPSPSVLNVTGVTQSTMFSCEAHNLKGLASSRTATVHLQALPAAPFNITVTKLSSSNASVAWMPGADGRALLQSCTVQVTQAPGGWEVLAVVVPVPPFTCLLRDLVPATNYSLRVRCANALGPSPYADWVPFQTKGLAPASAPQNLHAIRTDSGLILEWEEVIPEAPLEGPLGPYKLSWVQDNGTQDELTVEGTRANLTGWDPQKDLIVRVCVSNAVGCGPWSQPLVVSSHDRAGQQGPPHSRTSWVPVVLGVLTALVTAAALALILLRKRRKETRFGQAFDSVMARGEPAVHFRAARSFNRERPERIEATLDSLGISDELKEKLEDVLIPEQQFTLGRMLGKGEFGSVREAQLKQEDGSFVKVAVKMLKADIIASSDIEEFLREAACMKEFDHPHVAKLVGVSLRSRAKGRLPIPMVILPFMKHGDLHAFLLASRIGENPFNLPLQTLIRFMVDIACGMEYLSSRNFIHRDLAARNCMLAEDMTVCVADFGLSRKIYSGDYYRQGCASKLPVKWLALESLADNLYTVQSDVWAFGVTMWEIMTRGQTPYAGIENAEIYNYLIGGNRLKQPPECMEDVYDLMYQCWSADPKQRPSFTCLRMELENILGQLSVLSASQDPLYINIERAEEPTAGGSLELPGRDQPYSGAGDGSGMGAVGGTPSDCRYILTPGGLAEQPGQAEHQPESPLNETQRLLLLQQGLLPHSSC

Fms(Y969C)(h) = Fms(Y969C)(h) (Homo sapiens, UniProt P07333, Y969C)

Sequence of IRAK1(h) (P51617 whole entry): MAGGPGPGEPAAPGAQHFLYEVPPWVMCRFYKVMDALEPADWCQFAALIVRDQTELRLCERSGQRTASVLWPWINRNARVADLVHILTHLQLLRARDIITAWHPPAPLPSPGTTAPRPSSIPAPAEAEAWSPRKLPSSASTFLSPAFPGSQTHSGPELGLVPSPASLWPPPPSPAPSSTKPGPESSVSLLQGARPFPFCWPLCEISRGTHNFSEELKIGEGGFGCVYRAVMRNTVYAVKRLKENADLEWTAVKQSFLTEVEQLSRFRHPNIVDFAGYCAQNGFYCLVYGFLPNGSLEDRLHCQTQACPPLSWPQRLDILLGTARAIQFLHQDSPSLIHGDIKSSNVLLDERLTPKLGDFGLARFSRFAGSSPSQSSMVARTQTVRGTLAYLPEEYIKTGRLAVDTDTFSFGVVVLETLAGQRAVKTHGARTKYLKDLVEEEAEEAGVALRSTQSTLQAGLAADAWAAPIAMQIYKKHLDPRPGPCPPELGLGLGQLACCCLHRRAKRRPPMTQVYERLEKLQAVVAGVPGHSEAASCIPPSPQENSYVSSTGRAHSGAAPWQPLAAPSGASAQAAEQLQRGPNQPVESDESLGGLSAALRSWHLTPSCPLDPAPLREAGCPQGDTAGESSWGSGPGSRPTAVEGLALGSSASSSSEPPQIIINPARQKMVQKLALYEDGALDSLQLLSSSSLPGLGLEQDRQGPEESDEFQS
Sequence of CaMKIIβ(h) (Q13554 whole entry): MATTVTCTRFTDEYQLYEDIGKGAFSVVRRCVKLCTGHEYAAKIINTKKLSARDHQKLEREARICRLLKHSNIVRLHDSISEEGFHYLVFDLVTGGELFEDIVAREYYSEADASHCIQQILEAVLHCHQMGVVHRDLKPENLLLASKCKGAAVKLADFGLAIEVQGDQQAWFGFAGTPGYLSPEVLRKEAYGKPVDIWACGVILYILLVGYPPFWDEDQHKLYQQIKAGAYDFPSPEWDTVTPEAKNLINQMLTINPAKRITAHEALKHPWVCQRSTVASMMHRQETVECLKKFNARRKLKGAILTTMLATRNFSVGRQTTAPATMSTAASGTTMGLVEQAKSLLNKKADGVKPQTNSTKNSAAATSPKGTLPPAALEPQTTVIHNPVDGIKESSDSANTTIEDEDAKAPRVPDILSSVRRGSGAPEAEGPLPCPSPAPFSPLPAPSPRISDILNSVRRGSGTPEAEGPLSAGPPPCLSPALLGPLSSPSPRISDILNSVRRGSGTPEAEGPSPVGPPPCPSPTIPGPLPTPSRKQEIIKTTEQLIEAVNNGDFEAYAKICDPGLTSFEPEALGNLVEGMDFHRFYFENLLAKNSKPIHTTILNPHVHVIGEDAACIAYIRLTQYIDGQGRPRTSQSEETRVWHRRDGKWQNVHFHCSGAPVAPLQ
Sequence of PKCβI(h) (P05771 whole entry): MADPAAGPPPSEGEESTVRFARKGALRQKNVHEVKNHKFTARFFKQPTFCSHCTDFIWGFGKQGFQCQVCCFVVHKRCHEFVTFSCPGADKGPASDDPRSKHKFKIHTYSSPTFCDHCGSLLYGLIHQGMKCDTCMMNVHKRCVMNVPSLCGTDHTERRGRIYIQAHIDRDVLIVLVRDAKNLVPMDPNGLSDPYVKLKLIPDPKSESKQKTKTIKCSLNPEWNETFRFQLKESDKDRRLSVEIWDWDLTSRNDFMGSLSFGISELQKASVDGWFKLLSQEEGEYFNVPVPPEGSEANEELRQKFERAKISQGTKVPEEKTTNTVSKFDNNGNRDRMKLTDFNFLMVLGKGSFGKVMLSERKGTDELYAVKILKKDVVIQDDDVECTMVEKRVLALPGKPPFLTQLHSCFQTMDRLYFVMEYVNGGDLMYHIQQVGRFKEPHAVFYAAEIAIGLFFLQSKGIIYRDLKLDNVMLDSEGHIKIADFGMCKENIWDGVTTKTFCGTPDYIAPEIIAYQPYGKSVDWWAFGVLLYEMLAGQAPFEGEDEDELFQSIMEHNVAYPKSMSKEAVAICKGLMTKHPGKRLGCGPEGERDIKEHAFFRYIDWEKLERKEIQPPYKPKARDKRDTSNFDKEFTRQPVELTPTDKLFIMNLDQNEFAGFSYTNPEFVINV
Sequence of CDK7/cyclinH/MAT1(h) (P50613 whole entry): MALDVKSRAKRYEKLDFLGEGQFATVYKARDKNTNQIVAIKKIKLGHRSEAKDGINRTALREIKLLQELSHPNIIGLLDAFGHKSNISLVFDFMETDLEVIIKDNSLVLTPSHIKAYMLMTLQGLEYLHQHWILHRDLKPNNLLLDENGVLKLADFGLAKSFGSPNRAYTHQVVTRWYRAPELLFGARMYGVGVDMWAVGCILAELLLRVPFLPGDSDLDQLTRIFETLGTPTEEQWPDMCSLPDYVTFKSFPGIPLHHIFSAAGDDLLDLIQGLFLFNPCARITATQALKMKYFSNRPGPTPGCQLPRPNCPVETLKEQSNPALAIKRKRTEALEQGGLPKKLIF
Sequence of CDK7/cyclinH/MAT1(h) (P51946 whole entry partner): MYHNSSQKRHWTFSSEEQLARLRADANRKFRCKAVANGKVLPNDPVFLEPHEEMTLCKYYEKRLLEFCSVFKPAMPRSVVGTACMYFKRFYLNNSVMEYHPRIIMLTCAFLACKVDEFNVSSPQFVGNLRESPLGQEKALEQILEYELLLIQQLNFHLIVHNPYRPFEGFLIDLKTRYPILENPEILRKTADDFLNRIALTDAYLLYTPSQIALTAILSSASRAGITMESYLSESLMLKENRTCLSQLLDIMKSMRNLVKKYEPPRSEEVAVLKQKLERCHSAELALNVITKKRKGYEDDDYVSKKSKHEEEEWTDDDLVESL
Sequence of CDK7/cyclinH/MAT1(h) (P51948 whole entry partner): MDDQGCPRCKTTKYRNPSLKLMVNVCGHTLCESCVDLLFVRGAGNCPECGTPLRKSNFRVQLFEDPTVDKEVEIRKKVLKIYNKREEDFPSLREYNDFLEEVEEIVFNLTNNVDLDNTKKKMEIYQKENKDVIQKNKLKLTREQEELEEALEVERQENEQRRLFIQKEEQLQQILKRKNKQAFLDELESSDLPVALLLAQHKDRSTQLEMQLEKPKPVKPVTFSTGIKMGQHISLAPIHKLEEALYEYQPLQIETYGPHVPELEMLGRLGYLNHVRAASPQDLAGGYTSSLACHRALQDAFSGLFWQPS

Substance | % activity (GRK7(h)) | % activity (CDK7/cyclinH/MAT1(h)) | % activity (MST1(h)) | % activity (IRAK1(h)) | % activity (PKCβI(h)) | % activity (CaMKIIβ(h)) | % activity (NLK(h); 100 μM) | % activity (PKCγ(h)) | % activity (Ret(V804L)(h)) | % activity (Rse(h)) | % activity (Fms(Y969C)(h); 100 μM) | activity at 100 µM (NLK(h)) | activity at 100 µM (Fms(Y969C)(h))
HRRIKAWLKKIKALARQLGVAA (Mammalian) [MMI-0500] | 93% | 15% | 3% | 5% | 1% | 3% | 19% | 6% | 20% | 63% |  |  | 
YARAAARQARAKALNRQLGVA (Mammalian) [MMI-0200] | 124% | 67% | 72% | 101% | 98% | 53% |  | 101% | 100% | 88% | 88% |  | 
H-YARAAARQARAKALARQLGVAA-OH [MMI-0100] |  |  |  |  |  |  |  |  |  |  |  | 100% | 126%

From patent publication US10087225B2, “Formulation of MK2 inhibitor peptides” (MOERAE MATRIX, INC., priority 2015, dated 2018)
